Target: NUDT5 (Homo sapiens, UniProt Q9UKK9, dNUDT5 ternary complex, engineered CRBNmidi)
Test: proximity binding assay

B1: CRBNmidi (protein)
chain: MAGEGDQQDAAHNMGNHLPLLPAESEEEDEMEVEDQDSKEAKKPNIINFDTSLPTSHTYLGADMEEFHGRTLHDDDSCQVIPVLPQVMMILIPGQTLPLQLFHPQEVSMVRNLIQKDRTFAVLAYSNVQEREAQFGTTAEIYAYREEQDFGIEIVKVKAIGRQRFKVLELRTQSDGIQQAKVQILPECVLPSTMSAVQLESLNKCQIFPSKPVSREDQCSYKWWQKYQKRKFHCANLTSWPRWLYSLYDAETLMDRIKKQLREWDENLKDDSLPSNPIDFSYRVAACLPIDDVLRIQLLKIGSAIQRLRCELDIMNKCTSLCCKQCQETEITTKNEIFSLSLCGPMAAYVNPHGYVHETLTVYKACNLNLIGRPSTEHSWFPGYAWTVAQCKICASHIGWKFTATKKDMSPQKFWGLTRSALLPTIPDTEDEISPDKVILCL
- Kd: 340 pM

Source: article PMC13462928 (2026)
